# Measured values reported in the supplement of paper PMC9112550, “Optimization of the antimicrobial peptide Bac7 by deep mutational scanning” (BMC Biology, 2022).
# System: Escherichia coli TOP10
# Test: shrunken log2 fold change of peptide-encoding DNA abundance (4.5 h post-induction vs induction); higher = less antimicrobial activity (less host growth inhibition)
# Conditions: time post-induction: 4.5 h; library: site-saturation at positions 5, 18, 19, 20
# 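Note: peptides expressed intracellularly from a pBAD plasmid library in pooled LB shake-flask culture, induced with 0.3% L-arabinose, DNA abundance read by NGS, three biological replicates, DESeq2 with apeglm shrinkage.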
row,Sequence,shrunken log2 fold change
1,RRIRRRPPRLPRPRPRPRFKPRP,0.0822
2,RRIRRRPPRLPRPRPRPRGAPRP,0.8
3,RRIRRRPPRLPRPRPRPRGRPRP,0.319
4,RRIRRRPPRLPRPRPRPRGWPRP,0.979
5,RRIRRRPPRLPRPRPRPRHFPRP,-0.156
6,RRIRRRPPRLPRPRPRPRIHPRP,-0.113
7,RRIRRRPPRLPRPRPRPRLKPRP,0.231
8,RRIRRRPPRLPRPRPRPRLVPRP,0.527
9,RRIRRRPPRLPRPRPRPRMQPRP,0.372
10,RRIRRRPPRLPRPRPRPRNMPRP,0.112
11,RRIRRRPPRLPRPRPRPRPIPRP,0.945
12,RRIRRRPPRLPRPRPRPRRLPRP,0.54
13,RRIRRRPPRLPRPRPRPRRYPRP,0.0835
14,RRIRRRPPRLPRPRPRPRSLPRP,-0.0226
15,RRIRRRPPRLPRPRPRPRSRPRP,0.345
16,RRIRRRPPRLPRPRPRPRSTPRP,0.36
17,RRIRRRPPRLPRPRPRPRWCPRP,0.0597
18,RRIRRRPPRLPRPRPRPSAYPRP,0.104
19,RRIRRRPPRLPRPRPRPSCDPRP,0.177
20,RRIRRRPPRLPRPRPRPSCSPRP,-0.163
21,RRIRRRPPRLPRPRPRPSELPRP,0.0695
22,RRIRRRPPRLPRPRPRPSGFPRP,0.0452
23,RRIRRRPPRLPRPRPRPSIAPRP,0.238
24,RRIRRRPPRLPRPRPRPSIHPRP,-0.337
25,RRIRRRPPRLPRPRPRPSILPRP,0.197

row,Sequence,shrunken log2 fold change
1,RRIRRRPPRLPRPRPRPSKGPRP,-0.518
2,RRIRRRPPRLPRPRPRPSKLPRP,-0.0224
3,RRIRRRPPRLPRPRPRPSKYPRP,-0.483
4,RRIRRRPPRLPRPRPRPSLEPRP,0.232
5,RRIRRRPPRLPRPRPRPSMTPRP,0.315
6,RRIRRRPPRLPRPRPRPSNGPRP,-0.296
7,RRIRRRPPRLPRPRPRPSNKPRP,-0.101
8,RRIRRRPPRLPRPRPRPSNLPRP,0.112
9,RRIRRRPPRLPRPRPRPSPNPRP,0.396
10,RRIRRRPPRLPRPRPRPSPYPRP,0.0987
11,RRIRRRPPRLPRPRPRPSQEPRP,-0.225
12,RRIRRRPPRLPRPRPRPSSLPRP,-0.134
13,RRIRRRPPRLPRPRPRPSSQPRP,-0.25
14,RRIRRRPPRLPRPRPRPSTLPRP,-0.174
15,RRIRRRPPRLPRPRPRPSTRPRP,0.194
16,RRIRRRPPRLPRPRPRPSVHPRP,-0.278
17,RRIRRRPPRLPRPRPRPSVNPRP,-0.308
18,RRIRRRPPRLPRPRPRPSWKPRP,0.16
19,RRIRRRPPRLPRPRPRPSYSPRP,-0.319
20,RRIRRRPPRLPRPRPRPTAEPRP,-0.0162
21,RRIRRRPPRLPRPRPRPTAHPRP,1.51
22,RRIRRRPPRLPRPRPRPTARPRP,0.494
23,RRIRRRPPRLPRPRPRPTCIPRP,-0.123
24,RRIRRRPPRLPRPRPRPTCQPRP,0.775
25,RRIRRRPPRLPRPRPRPTDLPRP,-0.162

row,Sequence,shrunken log2 fold change
1,RRIRRRPPRLPRPRPRPTDVPRP,-0.0348
2,RRIRRRPPRLPRPRPRPTEPPRP,0.4
3,RRIRRRPPRLPRPRPRPTEVPRP,0.238
4,RRIRRRPPRLPRPRPRPTGTPRP,1.07
5,RRIRRRPPRLPRPRPRPTHAPRP,1.13
6,RRIRRRPPRLPRPRPRPTHLPRP,0.578
7,RRIRRRPPRLPRPRPRPTHYPRP,1.2
8,RRIRRRPPRLPRPRPRPTIPPRP,-0.0701
9,RRIRRRPPRLPRPRPRPTKVPRP,0.118
10,RRIRRRPPRLPRPRPRPTLKPRP,0.379
11,RRIRRRPPRLPRPRPRPTMHPRP,0.539
12,RRIRRRPPRLPRPRPRPTNEPRP,0.0166
13,RRIRRRPPRLPRPRPRPTNWPRP,0.37
14,RRIRRRPPRLPRPRPRPTPAPRP,1.55
15,RRIRRRPPRLPRPRPRPTQAPRP,-0.0717
16,RRIRRRPPRLPRPRPRPTQRPRP,0.625
17,RRIRRRPPRLPRPRPRPTRAPRP,0.738
18,RRIRRRPPRLPRPRPRPTRCPRP,0.661
19,RRIRRRPPRLPRPRPRPTTDPRP,0.647
20,RRIRRRPPRLPRPRPRPTVHPRP,0.231
21,RRIRRRPPRLPRPRPRPTWEPRP,0.0289
22,RRIRRRPPRLPRPRPRPTWFPRP,0.0478
23,RRIRRRPPRLPRPRPRPTWTPRP,0.464
24,RRIRRRPPRLPRPRPRPTWYPRP,0.0312
25,RRIRRRPPRLPRPRPRPVAEPRP,0.663
